{"source": "patent US20250339529A1", "about": "(MINK THERAPEUTICS, published 2025)", "data": [{"biological_target": "T1, BCMA antigen (UniProt Q02223 1-54, limits assumed)", "T1 construct": "also called wild type BCMA", "T1 sequence (looked up)": "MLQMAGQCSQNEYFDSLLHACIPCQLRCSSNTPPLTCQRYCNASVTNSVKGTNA", "assay": "SPR (Biacore T200), IgG captured on a protein A chip, huBCMA as analyte, 1:1 Binding model, 25 C", "experimental": "(§1) To test the affinity of BCMA F6G variants their binding domains were expressed as IgGs and captured to a protein A chip. BCMA antigen was flowed over the chip at […] concentrations. Experiment was run on Biacore T200. […] The CARs were expressed as IgGs and captured to a protein A chip. BCMA antigen was flowed over the chip at […]. concentrations. Experiment was run on Biacore T200.", "units": {"Kd": "nM", "koff": "s⁻¹", "kon": "M⁻¹ s⁻¹"}, "values": [{"molecule": "Bb2121 huIgG1 (antibody)", "Kd": 1.67, "koff": 0.00484, "kon": "2.89e+06"}, {"molecule": "F6Gvar2 (antibody, V domains shown) VH: QVQLVQSGAEVKKPGASVKVSCKASGYTFTGYYMQWVRQAPGQGLEWMGWMNPISGNTGYAQKFQGRVTMTRNTSISTAYMELSSLRSEDTAVYYCARAQWEPLDYWGQGTLVTVSS VL: SYELTQPPSVSVSPGQTARITCSGDALPKKYTYWYQQKSGQAPVLVIYYDTKRPSGIPERFSGSSSGTMATLTISGAQVEDEADYYCLSTHPAGQESVFGGGTKLTVLG", "Kd": 2.35, "koff": 0.000325, "kon": 138000}, {"molecule": "F6Gvar3 (antibody, V domains shown) VH: QVQLVQSGAEVKKPGASVKVSCKASGYTFTGYYMQWVRQAPGQGLEWMGWMNPISGNTGYAQKFQGRVTMTRNTSISTAYMELSSLRSEDTAVYYCARAQWEPLDYWGQGTLVTVSS VL: SYELTQPPSVSVSPGQTARITCSGDALPKKYTYWYQQKSGQAPVLVIYYDTKRPSGIPERFSGSSSGTMATLTISGAQVEDEADYYCLSTNPTGHESVFGGGTKLTVLG", "Kd": 2.12, "koff": 0.000317, "kon": 150000}, {"molecule": "F6G huIgG1 (antibody, V domains shown, also called germline F6G expressed as human IgG1) VH: QVQLVQSGAEVKKPGASVKVSCKASGYTFTGYYMHWVRQAPGQGLEWMGWMNPNSGNTGYAQKFQGRVTMTRNTSISTAYMELSSLRSEDTAVYYCARAQWEPLDYWGQGTLVTVSS VL: SYELTQPPSVSVSPGQTARITCSGDALPKKYTYWYQQKSGQAPVLVIYEDTKRPSGIPERFSGSSSGTMATLTISGAQVEDEADYYCLSTDPTGQESVFGGGTKLTVLG", "Kd": 97.8, "koff": 0.0197, "kon": 201000}]}, {"biological_target": "T1, BCMA antigen", "assay": "flow cytometry, iNKT cells transiently transfected with BCMA CAR-RFP mRNA and stained with soluble BCMA-APC, two donors", "experimental": "INKT cells from two donors were transiently transfected with F6G variants and anti-BCMA-CAR iNKT cell-mediated killing of tumor cells were tested. Flow cytometry analysis of RFP expression to show CAR expression and antigen binding with BCMA-APC in BCMA-CAR iNKTs (FIGS. 13A-13C). The level of BCMA expression on each tumor cell line was assessed by flow cytometry where left peak show isotype staining and right peak show BCMA expression (FIG. 13D). iNKT cells expressing anti-BCMA CAR (as shown in FIG. 13A) were co-cultured with tumor cell lines endogenously expressing BCMA or K562 for 24 hrs at 3 different effector-to-target ratios. After 24 hr co-coculture, cytotoxicity assay was analyzed by flow cytometry for percentage of dead target cells (FIG. 13E), percentage of CD69/CD25 co-expressing iNKT cells (FIG. 13F) and percentage of 4-1BB expressing iNKT cells (FIG. 13G).", "values": [{"molecule": "F6G-Var1 (other, also called F6G-Var1 CAR on iNKT cells (transient, CAR-RFP mRNA)) CAR polypeptide: QVQLVQSGAEVKKPGASVKVSCKASGYTFTGYYMHWVRQAPGQGLEWMGWMNPNSGNTGYAQKFQGRVTMTRNTSISTAYMELSSLRSEDTAVYYCARAQWEPLDYWGQGTLVTVSSGGGGSGGGGSGGGASSYELTQPPSVSVSPGQTARITCSGDALPKKYTYWYQQKSGQAPVLVIYYDTKRPSGIPERFSGSSSGTMATLTISGAQVEDEADYYCLSTDPTGQESVFGGGTKLTVLGQPAAATTTPAPRPPTPAPTIASQPLSLRPEACRPAAGGAVHTRGLDFACDIYIWAPLAGTCGVLLLSLVITLYCKRGRKKLLYIFKQPFMRPVQTTQEEDGCSCRFPEEEEGGCELRVKFSRSADAPAYQQGQNQLYNELNLGRREEYDVLDKRRGRDPEMGGKPRRKNPQEGLYNELQKDKMAEAYSEIGMKGERRRGKGHDGLYQGLSTATKDTYDALHMQALPPR", "binding result": "binds"}, {"molecule": "F6G (other, also called F6G CAR on iNKT cells (transient, CAR-RFP mRNA)) CAR polypeptide: QVQLVQSGAEVKKPGASVKVSCKASGYTFTGYYMHWVRQAPGQGLEWMGWMNPNSGNTGYAQKFQGRVTMTRNTSISTAYMELSSLRSEDTAVYYCARAQWEPLDYWGQGTLVTVSSGGGGSGGGGSGGGASSYELTQPPSVSVSPGQTARITCSGDALPKKYTYWYQQKSGQAPVLVIYEDTKRPSGIPERFSGSSSGTMATLTISGAQVEDEADYYCLSTDPTGQESVFGGGTKLTVLGQPAAATTTPAPRPPTPAPTIASQPLSLRPEACRPAAGGAVHTRGLDFACDIYIWAPLAGTCGVLLLSLVITLYCKRGRKKLLYIFKQPFMRPVQTTQEEDGCSCRFPEEEEGGCELRVKFSRSADAPAYQQGQNQLYNELNLGRREEYDVLDKRRGRDPEMGGKPRRKNPQEGLYNELQKDKMAEAYSEIGMKGERRRGKGHDGLYQGLSTATKDTYDALHMQALPPR", "binding result": "binds"}, {"molecule": "F6G-Var4 (other, also called F6G-Var4 CAR on iNKT cells (transient, CAR-RFP mRNA)) CAR polypeptide: QVQLVQSGAEVKKPGASVKVSCKASGYTFTGYYMHWVRQAPGQGLEWMGWMNPNSGNTGYAQKFQGRVTMTRNTSISTAYMELSSLRSEDTAVYYCARAQWEPLDYWGQGTLVTVSSGGGGSGGGGSGGGASSYELTQPPSVSVSPGQTARITCSGDALPKKYTYWYQQKSGQAPVLVIYYDTKRPSGIPERFSGSSSGTMATLTISGAQVEDEADYYCLSTHPAGQESVFGGGTKLTVLGQPAAATTTPAPRPPTPAPTIASQPLSLRPEACRPAAGGAVHTRGLDFACDIYIWAPLAGTCGVLLLSLVITLYCKRGRKKLLYIFKQPFMRPVQTTQEEDGCSCRFPEEEEGGCELRVKFSRSADAPAYQQGQNQLYNELNLGRREEYDVLDKRRGRDPEMGGKPRRKNPQEGLYNELQKDKMAEAYSEIGMKGERRRGKGHDGLYQGLSTATKDTYDALHMQALPPR", "binding result": "binds"}, {"molecule": "F6G-Var6 (other, also called F6G-Var6 CAR on iNKT cells (transient, CAR-RFP mRNA)) CAR polypeptide: QVQLVQSGAEVKKPGASVKVSCKASGYTFTEYYMKWVRQAPGQGLEWMGWMNPNTGKTGYAQKFQGRVTMTRNTSISTAYMELSSLRSEDTAVYYCARAQWEPLDYWGQGTLVTVSSGGGGSGGGGSGGGASSYELTQPPSVSVSPGQTARITCSGDALPKKYTYWYQQKSGQAPVLVIYYDTKRPSGIPERFSGSSSGTMATLTISGAQVEDEADYYCLSTDPTGQESVFGGGTKLTVLGQPAAATTTPAPRPPTPAPTIASQPLSLRPEACRPAAGGAVHTRGLDFACDIYIWAPLAGTCGVLLLSLVITLYCKRGRKKLLYIFKQPFMRPVQTTQEEDGCSCRFPEEEEGGCELRVKFSRSADAPAYQQGQNQLYNELNLGRREEYDVLDKRRGRDPEMGGKPRRKNPQEGLYNELQKDKMAEAYSEIGMKGERRRGKGHDGLYQGLSTATKDTYDALHMQALPPR", "binding result": "binds"}, {"molecule": "F6G-Var5 (other, also called F6G-Var5 CAR on iNKT cells (transient, CAR-RFP mRNA)) CAR polypeptide: QVQLVQSGAEVKKPGASVKVSCKASGYTFTGYYMHWVRQAPGQGLEWMGWMNPNSGNTGYAQKFQGRVTMTRNTSISTAYMELSSLRSEDTAVYYCARAQWEPLDYWGQGTLVTVSSGGGGSGGGGSGGGASSYELTQPPSVSVSPGQTARITCSGDALPKKYTYWYQQKSGQAPVLVIYYDTKRPSGIPERFSGSSSGTMATLTISGAQVEDEADYYCLSTNPTGHESVFGGGTKLTVLGQPAAATTTPAPRPPTPAPTIASQPLSLRPEACRPAAGGAVHTRGLDFACDIYIWAPLAGTCGVLLLSLVITLYCKRGRKKLLYIFKQPFMRPVQTTQEEDGCSCRFPEEEEGGCELRVKFSRSADAPAYQQGQNQLYNELNLGRREEYDVLDKRRGRDPEMGGKPRRKNPQEGLYNELQKDKMAEAYSEIGMKGERRRGKGHDGLYQGLSTATKDTYDALHMQALPPR", "binding result": "binds"}, {"molecule": "F6G-Var3 (other, also called F6G-Var3 CAR on iNKT cells (transient, CAR-RFP mRNA)) CAR polypeptide: QVQLVQSGAEVKKPGASVKVSCKASGYTFTGYYMQWVRQAPGQGLEWMGWMNPISGNTGYAQKFQGRVTMTRNTSISTAYMELSSLRSEDTAVYYCARAQWEPLDYWGQGTLVTVSSGGGGSGGGGSGGGASSYELTQPPSVSVSPGQTARITCSGDALPKKYTYWYQQKSGQAPVLVIYYDTKRPSGIPERFSGSSSGTMATLTISGAQVEDEADYYCLSTNPTGHESVFGGGTKLTVLGQPAAATTTPAPRPPTPAPTIASQPLSLRPEACRPAAGGAVHTRGLDFACDIYIWAPLAGTCGVLLLSLVITLYCKRGRKKLLYIFKQPFMRPVQTTQEEDGCSCRFPEEEEGGCELRVKFSRSADAPAYQQGQNQLYNELNLGRREEYDVLDKRRGRDPEMGGKPRRKNPQEGLYNELQKDKMAEAYSEIGMKGERRRGKGHDGLYQGLSTATKDTYDALHMQALPPR", "binding result": "binds"}]}, {"biological_target": "T1, BCMA antigen", "assay": "SPR (Biacore T200), IgG captured on a protein A chip, huBCMA as analyte, 1:1 Binding model, 25 C; same panel as in FIG. 11", "experimental": "as §1", "units": {"Kd": "nM", "koff": "s⁻¹", "kon": "M⁻¹ s⁻¹"}, "values": [{"molecule": "F6Gvar2 (antibody, V domains shown) VH: QVQLVQSGAEVKKPGASVKVSCKASGYTFTGYYMQWVRQAPGQGLEWMGWMNPISGNTGYAQKFQGRVTMTRNTSISTAYMELSSLRSEDTAVYYCARAQWEPLDYWGQGTLVTVSS VL: SYELTQPPSVSVSPGQTARITCSGDALPKKYTYWYQQKSGQAPVLVIYYDTKRPSGIPERFSGSSSGTMATLTISGAQVEDEADYYCLSTHPAGQESVFGGGTKLTVLG", "Kd": 2.35, "koff": 0.000325, "kon": 138000}]}]}
